Measurements: paper PMC6204900
Blank lines part the entries; values can stand above or below the substance they belong to.

Tests used:
[1] = molecular target: human insulin receptor isoform A (IR-A) on IM-9 lymphocytes (human (endogenous in IM-9)) (UniProt P06213); test: radioligand binding; dissociation kinetics without cold ligand; IM-9 cells (3x10^7/mL) preincubated with about 0.03 nM 125I-labelled ligand at 15 °C ([…] insulin and analog, 4 h IGF-1), washed, diluted 40 times, 15 °C; one phase exponential decay
[2] = molecular target: human IGF-1 receptor (IGF-1R) on CHO-K1 cells stably transfected with pcDNA3-IGF-1R (human) (UniProt P08069); test: radioligand binding; association kinetics; CHO-R+ cells (10^7/mL) in HEPES binding buffer pH 7.6 with about 0.03 nM 125I-labelled ligand at 15 °C; cells pelleted at time points; fit: association kinetics, one concentration of hot (GraphPad Prism 5) with the dissociation rate set; apparent constants
[3] = molecular target: human insulin receptor isoform A (IR-A) on IM-9 lymphocytes (human (endogenous in IM-9)) (UniProt P06213); test: radioligand binding; association kinetics; IM-9 cells (10^7/mL) in HEPES binding buffer pH 7.6 with about 0.03 nM 125I-labelled ligand at 15 °C; cells pelleted at time points; fit: association kinetics, one concentration of hot (GraphPad Prism 5) with the dissociation rate set; apparent constants
[4] = molecular target: human IGF-1 receptor (IGF-1R) on CHO-K1 cells stably transfected with pcDNA3-IGF-1R (human) (UniProt P08069); test: radioligand binding; dissociation kinetics without cold ligand; CHO-R+ cells (3x10^7/mL) preincubated with about 0.03 nM 125I-labelled ligand at 15 °C ([…] analog and IGF-1, 7 h insulin), washed, diluted 40 times, 15 °C; one phase exponential decay
[5] = molecular target: IGF-1 receptor (in transfected mouse embryonic fibroblasts R+39) (human) (UniProt P08069); test: radioligand binding; whole-cell receptor-binding assay on IGF-1R null mouse embryonic fibroblasts stably transfected with human IGF-1R; each binding curve in duplicate, Kd from at least three curves; details in the supporting information
[6] = molecular target: insulin receptor isoform B (human) (UniProt P06213); test: radioligand binding; whole-cell receptor-binding assay on IGF-1R null mouse embryonic fibroblasts stably transfected with human IR-B; each binding curve in duplicate, Kd from at least three curves; details in the supporting information
[7] = molecular target: IGF-1 receptor (in transfected mouse embryonic fibroblasts R+39) (human) (UniProt P08069)
[8] = molecular target: insulin receptor isoform A (human (endogenous in IM-9)) (UniProt P06213); test: radioligand binding; whole-cell receptor-binding assay on human IM-9 lymphocytes (containing IR-A); each binding curve in duplicate, Kd from at least three curves; details in the supporting information

[Gly^B31, Tyr^B32]-insulin, sequence (P01308 90-110): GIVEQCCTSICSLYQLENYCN
[Gly^B31, Tyr^B32]-insulin, sequence (P01308 other isoform, or with tags, fused parts or gaps): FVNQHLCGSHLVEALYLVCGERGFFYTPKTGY

- koff [1]: 2.83e-05 s⁻¹
- kon [2]: 7.83e+07 M⁻¹ s⁻¹
- kon [3]: 5.87e+07 M⁻¹ s⁻¹
- koff [4]: 0.000107 s⁻¹
Substance: 125I-[D-HisB24, GlyB31, TyrB32]-insulin (ligand)

- Kd [5]: 0.89 nM
Substance: [D-His^B24, Gly^B31, Tyr^B32]-insulin (from UniProt P01308 90-110) (ligand)

- Kd [6]: 0.3 nM
Substance: [D-His^B24]-des-(B27-B30)-tetrapeptide-B26-carboxamide insulin (from UniProt P01308 90-110) (ligand)

- autophosphorylation of IGF-1R (immunoblot), IGF-1R-transfected mouse fibroblasts, 10 nM ligand, against insulin; not significant in the analysis of variance [7]: 3 fold
Substance: [Gly^B31, Tyr^B32]-insulin (from UniProt P01308 90-110; P01308 25-54) (ligand)

- autophosphorylation of IGF-1R (immunoblot), IGF-1R-transfected mouse fibroblasts, 10 nM ligand, against insulin; not significant in the analysis of variance [7]: 3 fold
Substance: [Tyr^B25, Phe^B26, Asn^B27, Lys^B28, Pro^B29, Gly^B31, Tyr^B32]-insulin (from UniProt P01308 90-110) (ligand)

- Kd [8]: 31.5 nM
- Kd [6]: 224 nM
Substance: human insulin-like growth factor 1 (from UniProt P05019 49-118) (ligand)

- Kd [8]: 2.92 nM
- Kd [5]: 2.32 nM
- Kd [6]: 35.5 nM
Substance: insulin-like growth factor 2 (from UniProt P01344 25-91) (ligand)
